± gives the standard deviation of the averaged measurements.
Assay: total protein half-life in vivo (active degradation + dilution); higher = more stable protein
[1] = E. coli NCM3722 delta-clpP delta-lon delta-hslV, growth: N-lim chemostat, doubling time 6 h
[2] = E. coli NCM3722 delta-clpP, growth: N-lim chemostat, doubling time 6 h
[3] = E. coli NCM3722 delta-hslV, growth: N-lim chemostat, doubling time 6 h
[4] = E. coli NCM3722 delta-lon, growth: N-lim chemostat, doubling time 6 h
[5] = E. coli NCM3722 delta-smpB, growth: N-lim chemostat, doubling time 6 h
[6] = wild type E. coli NCM3722, growth: C-lim chemostat, doubling time 3 h
[7] = wild type E. coli NCM3722, growth: C-lim chemostat, doubling time 12 h
[8] = wild type E. coli NCM3722, growth: N-lim chemostat, doubling time 6 h
[9] = wild type E. coli NCM3722, growth: N-lim chemostat, doubling time 12 h
[10] = wild type E. coli NCM3722, growth: P-lim chemostat, doubling time 6 h
[11] = wild type E. coli NCM3722, growth: P-lim chemostat, doubling time 12 h
[12] = wild type E. coli NCM3722, growth: C-lim chemostat, doubling time 6 h

Row | Sequence | total protein half-life in vivo [1] [h] | total protein half-life in vivo [2] [h] | total protein half-life in vivo [3] [h] | total protein half-life in vivo [4] [h] | total protein half-life in vivo [5] [h] | total protein half-life in vivo [6] [h] | total protein half-life in vivo [7] [h] | total protein half-life in vivo [8] [h] | total protein half-life in vivo [9] [h] | total protein half-life in vivo [10] [h] | total protein half-life in vivo [11] [h] | total protein half-life in vivo [12] [h]
1 | MSDWNPSLYLHFSAERSRPAVELLARVPLENVEYVADLGCGPGNSTALLQQRWPAARITGIDSSPAMIAEARSALPDCQFVEADIRNWQPVQALDLIFANASLQWLPDHYELFPHLVSLLNPQGVLAVQMPDNWLEPTHVLMREVAWEQNYPDRGREPLAGVHAYYDILSEAGCEVDIWRTTYYHQMPSHQAIIDWVTATGLRPWLQDLTESEQQLFLKRYHQMLEEQYPLQENGQILLAFPRLFIVARRME | 3.89 ± 0.51 | 5.9 ± 1.7 | 4.82 ± 0.7 | 6.54 ± 1.9 | 3.62 ± 0.042 | 3.29 ± 0.6 | 9.97 ± 1.8 | 4.14 ± 0.17 | 4.96 | 5.89 ± 0.061 | 11 ± 0.27 | –
2 | MTVAYIAIGSNLASPLEQVNAALKALGDIPESHILTVSSFYRTPPLGPQDQPDYLNAAVALETSLAPEELLNHTQRIELQQGRVRKAERWGPRTLDLDIMLFGNEVINTERLTVPHYDMKNRGFMLWPLFEIAPELVFPDGEMLRQILHTRAFDKLNKW | – | 4.02 | 4.41 | 4.82 | – | 3.22 ± 0.3 | 10.3 | 3.76 | – | 5.3 | 10.7 | –
3 | MTMPTNQCPWRMQVHHITQETPDVWTISLICHDYYPYRAGQYALVSVRNSAETLRAYTISSTPGVSEYITLTVRRIDDGVGSQWLTRDVKRGDYLWLSDAMGEFTCDDKAEDKFLLLAAGCGVTPIMSMRRWLAKNRPQADVRVIYNVRTPQDVIFADEWRNYPVTLVAENNVTEGFIAGRLTRELLAGVPDLASRTVMTCGPAPYMDWVEQEVKALGVTRFFKEKFFTPVAEAATSGLKFTKLQPAREFYAPVGTTLLEALESNNVPVVAACRAGVCGCCKTKVVSGEYTVSSTMTLTDAEIAEGYVLACSCHPQGDLVLA | 3.27 ± 0.63 | – | – | – | – | – | – | – | – | – | – | –
4 | MSSLINNAMSGLNAAQAALNTASNNISSYNVAGYTRQTTIMAQANSTLGAGGWVGNGVYVSGVQREYDAFITNQLRAAQTQSSGLTARYEQMSKIDNMLSTSTSSLATQMQDFFTSLQTLVSNAEDPAARQALIGKSEGLVNQFKTTDQYLRDQDKQVNIAIGASVDQINNYAKQIASLNDQISRLTGVGAGASPNNLLDQRDQLVSELNQIVGVEVSVQDGGTYNITMANGYSLVQGSTARQLAAVPSSADPSRTTVAYVDGTAGNIEIPEKLLNTGSLGGILTFRSQDLDQTRNTLGQLALAFAEAFNTQHKAGFDANGDAGEDFFAIGKPAVLQNTKNKGDVAIGATVTDASAVLATDYKISFDNNQWQVTRLASNTTFTVTPDANGKVAFDGLELTFTGTPAVNDSFTLKPVSDAIVNMDVLITDEAKIAMASEEDAGDSDNRNGQALLDLQSNSKTVGGAKSFNDAYASLVSDIGNKTATLKTSSATQGNVVTQLSNQQQSISGVNLDEEYGNLQRFQQYYLANAQVLQTANAIFDALINIR | 3.99 ± 0.38 | > 8 | > 8 | – | > 8 | 0.385 ± 0.15 | 0.835 ± 0.28 | 5.22 ± 0.16 | – | – | – | 0.323 ± 0.065
5 | MKPNIHPEYRTVVFHDTSVDEYFKIGSTIKTDREIELDGVTYPYVTIDVSSKSHPFYTGKLRTVASEGNVARFTQRFGRFVSTKKGA [P0A7N1] | – | – | – | – | 2.8 | 2.784 ± 0.022 | 9.33 | – | – | 6.22 | – | 5.71 ± 0.51
6 | MIVISRHVAIPDGELEITAIRAQGAGGQHVNKTSTAIHLRFDIRASSLPEYYKERLLAASHHLISSDGVIVIKAQEYRSQELNREAALARLVAMIKELTTEKKARRPTRPTRASKERRLASKAQKSSVKAMRGKVRSGRE | – | 3.47 | 4.86 | 5 ± 0.37 | 4.58 | 2.4 | 6.61 | 4.19 | 8.89 | 4.91 | – | 4.63
7 | MKEVEKNEIKRLSDRLDAIRHQQADLSLVEAADKYAELEKEKATLEAEIARLREVHSQKLSKEAQKLMKMPFQRAITKKEQADMGKLKKSVRGLVVVHPMTALGREMGLQEMTGFSKTAF [P0ADK8] | 6.16 ± 1.2 | 4.37 ± 0.35 | 4.65 ± 0.78 | 5.34 ± 1.4 | 4.26 ± 0.64 | – | 9.91 ± 3.4 | 3.91 ± 0.96 | 6.76 ± 1.6 | 3.5 ± 0.53 | 6.29 ± 0.48 | > 8
8 | MKTIGLLGGMSWESTIPYYRLINEGIKQRLGGLHSAQVLLHSVDFHEIEECQRRGEWDKTGDILAEAALGLQRAGAEGIVLCTNTMHKVADAIESRCTLPFLHIADATGRAITGAGMTRVALLGTRYTMEQDFYRGRLTEQFSINCLIPEADERAKINQIIFEELCLGQFTEASRAYCAQVIARLAEQGAQGVIFGCTEIGLLVPEERSVLPVFDTAAIHAEDAVAFMLS | – | 4.02 ± 0.18 | 4.05 ± 0.27 | 4.84 ± 0.066 | 3.69 ± 0.16 | 2.27 ± 0.064 | 7.096 ± 0.017 | 3.96 ± 0.22 | 6.72 ± 0.36 | 4.25 ± 0.4 | 8.06 ± 0.15 | 4.43 ± 0.24
9 | MTWFIDRRLNGKNKSMVNRQRFLRRYKAQIKQSISEAINKRSVTDVDSGESVSIPTEDISEPMFHQGRGGLRHRVHPGNDHFVQNDRIERPQGGGGGSGSGQGQASQDGEGQDEFVFQISKDEYLDLLFEDLALPNLKQNQQRQLTEYKTHRAGYTANGVPANISVVRSLQNSLARRTAMTAGKRRELHALEENLAIISNSEPAQLLEEERLRKEIAELRAKIERVPFIDTFDLRYKNYEKRPDPSSQAVMFCLMDVSGSMDQSTKDMAKRFYILLYLFLSRTYKNVEVVYIRHHTQAKEVDEHEFFYSQETGGTIVSSALKLMDEVVKERYNPAQWNIYAAQASDGDNWADDSPLCHEILAKKLLPVVRYYSYIEITRRAHQTLWREYEHLQSTFDNFAMQHIRDQDDIYPVFRELFHKQNATAKG | 2.93 ± 0.22 | 2.2 ± 0.052 | 1.52 ± 0.018 | 1.525 ± 0.004 | 1.49 ± 0.047 | 1.37 ± 0.082 | 1.95 ± 0.46 | 1.47 ± 0.039 | 1.64 ± 0.027 | 1.98 ± 0.3 | 3.11 ± 0.88 | 1.6 ± 0.063
10 | MRRILSVLLENESGALSRVIGLFSQRGYNIESLTVAPTDDPTLSRMTIQTVGDEKVLEQIEKQLHKLVDVLRVSELGQGAHVEREIMLVKIQASGYGRDEVKRNTEIFRGQIIDVTPSLYTVQLAGTSGKLDAFLASIRDVAKIVEVARSGVVGLSRGDKIMR | 5.652 ± 0.022 | 6.01 ± 0.31 | 5.93 ± 0.45 | 5.9 ± 0.55 | 5.37 ± 0.21 | 3.07 ± 0.047 | 10.5 ± 0.55 | 5.72 ± 0.27 | 9.51 ± 0.46 | 5.98 ± 0.1 | 12.4 ± 0.78 | 5.93 ± 0.13

Reference: the supplement of paper PMC11246515
